Source: patent US20140341881A1 (DERMADIS, published 2014)

T1: human kallikrein 14 (hK14) (human, UniProt Q9P0G3 25-251, limits assumed)
T1 construct: range counted on GenBank AAK48524 (printed), which may differ from the UniProt numbering; also called recombinant hK14
T1 sequence (looked up): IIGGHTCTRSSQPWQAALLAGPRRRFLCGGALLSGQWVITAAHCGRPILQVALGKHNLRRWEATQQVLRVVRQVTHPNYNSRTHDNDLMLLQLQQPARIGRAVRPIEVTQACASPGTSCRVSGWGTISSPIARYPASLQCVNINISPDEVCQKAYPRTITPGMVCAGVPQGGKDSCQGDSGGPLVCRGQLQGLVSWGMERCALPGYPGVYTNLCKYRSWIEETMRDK

T2: human neutrophil elastase (HNE) (human, UniProt P08246 30-247, limits assumed)
T2 sequence (looked up): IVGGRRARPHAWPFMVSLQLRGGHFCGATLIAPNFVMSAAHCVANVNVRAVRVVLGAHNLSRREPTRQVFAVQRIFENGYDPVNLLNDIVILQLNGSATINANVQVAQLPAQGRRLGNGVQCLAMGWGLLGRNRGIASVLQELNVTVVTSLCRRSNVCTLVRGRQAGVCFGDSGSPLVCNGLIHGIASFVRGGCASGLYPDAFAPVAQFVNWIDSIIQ


Key:
[1] = biological target: T1, human kallikrein 14 (hK14); assay: residual hK14 activity against [I0]/[E0]
Procedure: SI values of rAAT, rACT, and their variants were determined with hK14 incubating the protease with varying concentrations of inhibitor. After an incubation of 4 hours at 37° C. in reaction buffer (50 mM Tris, pH 7.5, 150 mM NaCl, 0.05% Triton X-100, 0.01% BSA), the residual activity was detected by the addition of fluorescent substrate (Boc-Val-Pro-Arg-AMC). Fluorescence was measured with excitation at 340 nm (±15) and emission at 485 nm (±10) in black 96 well plates using a microplate fluorescence reader FLₓ800 (Bio-Tek Instruments, Inc.). The SI value corresponds to the abscissa intercept of the linear regression analysis of fractional velocity (velocity of inhibited enzyme reaction (vi)/velocity of uninhibited enzyme reaction (v₀)) vs. the molar ratio of the inhibitor to enzyme ([I₀]/[E₀]).

[2] = biological target: urokinase plasminogen activator (uPA) (UniProt P00749 21-431, limits assumed); assay: cell-based or functional assay
thrombin = assay: cell-based or functional assay
[3] = biological target: human plasma kallikrein (PK) (human, UniProt P03952 20-638); assay: cell-based or functional assay
[4] = biological target: human chymotrypsin (Chtr) (human, UniProt P17538 19-263); assay: cell-based or functional assay
[5] = biological target: T1, human kallikrein 14 (hK14); assay: cell-based or functional assay
[6] = biological target: T2, human neutrophil elastase (HNE); assay: cell-based or functional assay

Sequence of human plasma kallikrein (PK) (P03952 20-638 limits assumed): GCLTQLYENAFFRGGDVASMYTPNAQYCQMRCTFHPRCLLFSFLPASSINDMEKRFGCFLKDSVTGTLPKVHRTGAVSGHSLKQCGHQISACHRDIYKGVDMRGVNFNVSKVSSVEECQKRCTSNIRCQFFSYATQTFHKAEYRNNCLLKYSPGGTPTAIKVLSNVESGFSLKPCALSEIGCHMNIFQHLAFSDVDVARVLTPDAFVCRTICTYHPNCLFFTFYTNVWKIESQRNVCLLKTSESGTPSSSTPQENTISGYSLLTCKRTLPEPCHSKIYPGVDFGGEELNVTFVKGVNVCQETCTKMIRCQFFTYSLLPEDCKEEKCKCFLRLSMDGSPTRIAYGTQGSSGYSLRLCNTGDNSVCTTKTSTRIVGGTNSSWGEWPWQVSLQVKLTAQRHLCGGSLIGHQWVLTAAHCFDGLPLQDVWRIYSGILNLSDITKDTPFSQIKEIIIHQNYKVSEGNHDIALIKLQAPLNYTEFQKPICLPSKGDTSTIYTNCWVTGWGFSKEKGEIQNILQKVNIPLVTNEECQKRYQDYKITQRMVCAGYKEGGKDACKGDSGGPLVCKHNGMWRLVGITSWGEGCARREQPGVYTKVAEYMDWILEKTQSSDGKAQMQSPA
Sequence of human chymotrypsin (Chtr) (P17538 19-263): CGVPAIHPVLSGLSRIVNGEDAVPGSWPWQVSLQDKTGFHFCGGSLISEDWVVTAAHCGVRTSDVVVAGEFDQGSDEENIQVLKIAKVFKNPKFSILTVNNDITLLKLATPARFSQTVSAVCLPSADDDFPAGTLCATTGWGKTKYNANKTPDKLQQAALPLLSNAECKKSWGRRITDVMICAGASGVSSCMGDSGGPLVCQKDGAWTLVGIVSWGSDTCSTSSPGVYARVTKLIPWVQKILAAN

Binder | SI (stoichiometry of inhibition) [1] | % Inhibition [2] [%] | % Inhibition (thrombin) [%] | % Inhibition [3] [%] | % Inhibition [4] [%] | % Inhibition [5] [%] | % Inhibition [6] [%]
AATC11 (other, human, mature) HHHHHHEDPQGDAAQKTDTSHHDQDHPTFNKITPNLAEFAFSLYRQLAHQSNSTNIFFSPVSIATAFAMLSLGTKADTHDEILEGLNFNLTEIPEAQIHEGFQELLRTLNQPDSQLQLTTGNGLFLSEGLKLVDKFLEDVKKLYHSEAFTVNFGDTEEAKKQINDYVEKGTQGKIVDLVKELDRDTVFALVNYIFFKGKWERPFEVKDTEEEDFHVDQVTTVKVPMMKRLGMFNIQHCKKLSSWVLLMKYLGNATAIFFLPDEGKLQHLENELTHDIITKFLENEDRRSASLHLPKLSITGTYDLKSVLGQLGITKVFSNGADLSGVTEEAPLKLSKAVHKAVLTIDEKGTEAAGAMFLEAIPRQTNPEVKFNKPFVFLMIEQNTKSPLFMGKVVNPTQK | 2.8 | 0 | 100 | 8 | 18 | 100 | 0
AATE5 (other, human, mature) HHHHHHEDPQGDAAQKTDTSHHDQDHPTFNKITPNLAEFAFSLYRQLAHQSNSTNIFFSPVSIATAFAMLSLGTKADTHDEILEGLNFNLTEIPEAQIHEGFQELLRTLNQPDSQLQLTTGNGLFLSEGLKLVDKFLEDVKKLYHSEAFTVNFGDTEEAKKQINDYVEKGTQGKIVDLVKELDRDTVFALVNYIFFKGKWERPFEVKDTEEEDFHVDQVTTVKVPMMKRLGMFNIQHCKKLSSWVLLMKYLGNATAIFFLPDEGKLQHLENELTHDIITKFLENEDRRSASLHLPKLSITGTYDLKSVLGQLGITKVFSNGADLSGVTEEAPLKLSKAVHKAVLTIDEKGTEAAGAMFLEANQRSSPPEVKFNKPFVFLMIEQNTKSPLFMGKVVNPTQK | 10 | – | – | – | – | – | –

The remaining lines, values ahead:

SI (stoichiometry of inhibition) [1] | % Inhibition [2] [%] | % Inhibition (thrombin) [%] | % Inhibition [3] [%] | % Inhibition [4] [%] | % Inhibition [5] [%] | % Inhibition [6] [%] | Binder
11.7 | – | – | – | – | – | – | AATF3 (other, human, mature) HHHHHHEDPQGDAAQKTDTSHHDQDHPTFNKITPNLAEFAFSLYRQLAHQSNSTNIFFSPVSIATAFAMLSLGTKADTHDEILEGLNFNLTEIPEAQIHEGFQELLRTLNQPDSQLQLTTGNGLFLSEGLKLVDKFLEDVKKLYHSEAFTVNFGDTEEAKKQINDYVEKGTQGKIVDLVKELDRDTVFALVNYIFFKGKWERPFEVKDTEEEDFHVDQVTTVKVPMMKRLGMFNIQHCKKLSSWVLLMKYLGNATAIFFLPDEGKLQHLENELTHDIITKFLENEDRRSASLHLPKLSITGTYDLKSVLGQLGITKVFSNGADLSGVTEEAPLKLSKAVHKAVLTIDEKGTEAAGAMFLEAPDRHMPPEVKFNKPFVFLMIEQNTKSPLFMGKVVNPTQK
3.6 | 17 | 51 | 100 | 27 | 100 | 0 | AATG1 (other, human, mature) HHHHHHEDPQGDAAQKTDTSHHDQDHPTFNKITPNLAEFAFSLYRQLAHQSNSTNIFFSPVSIATAFAMLSLGTKADTHDEILEGLNFNLTEIPEAQIHEGFQELLRTLNQPDSQLQLTTGNGLFLSEGLKLVDKFLEDVKKLYHSEAFTVNFGDTEEAKKQINDYVEKGTQGKIVDLVKELDRDTVFALVNYIFFKGKWERPFEVKDTEEEDFHVDQVTTVKVPMMKRLGMFNIQHCKKLSSWVLLMKYLGNATAIFFLPDEGKLQHLENELTHDIITKFLENEDRRSASLHLPKLSITGTYDLKSVLGQLGITKVFSNGADLSGVTEEAPLKLSKAVHKAVLTIDEKGTEAAGAMFLEGSLRSIPPEVKFNKPFVFLMIEQNTKSPLFMGKVVNPTQK
